According to the supplement of paper PMC12636428:

Tested on: Saccharomyces cerevisiae
Assay: transcriptional activation domain activity (GFP:mCherry ratio, weighted mean of sorted bins, harmonized to initial dataset scale) (arbitrary fluorescence ratio units); higher = stronger transcriptional activation
Settings: beta-estradiol 1 µM; induction time 4 h
How it was run: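 Each value is an activation activity: the read-weighted mean of bin median fluorescence, averaged across barcodes, then mapped linearly to the initial dataset scale. The tiles, fused to an estradiol-inducible synthetic transcription factor, sat at the yeast URA3 locus in GFP-reporter diploids. Cells spent 4 hours at 30 °C in SC with 1 uM beta-estradiol before sorting into 8 GFP:mCherry bins, and tiles below 50 reads were removed.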

Sequence | transcriptional activation domain activity
TSCFSFLVFSFIFLSLGIMMWSLGQELLWYFVFFCLVWIFLLVVCLFIIEYSE | 32500
TSDTGKKRQIKEEAEEESEEEPPTKRQRRKPVEEKETPKKAAAKPKADKVPAK | 40500
TSFVLYLKLNQVIAFSLRTIYSINKSKILLGFVGQQWEQHIVSELDSALNKWV | 37900
TSIFGSNNNNTGSGMFGGNNNTNTGTPFGGGGGFGTNTNTNTAFGSKPFGSST | 17500
TSIFGSNNNTGGTMFGSNTNTSSPFGGGGTSNTSIFARRFALSLALLRSPTSY | 30900
TSIRKIRAGESGGGESGGGESSGGESSGGGERGRRRRGAKEVEVRARGGGKAT | 43700
TSKAQESKTKEGDKEEKAATKREKDDSKEEDDDDDNETEEKQAGDKRKKTNGS | 30800
TSLESAPVHVPMHCGIQGVVGSLGVLVSASVVQCVRASIARDSEGGMEWMRVE | 33600
TSLRLVMFQITFLDLFFKAYGSNIARLDNNYGFPDKQLPERMVEEVKAIYKIN | 56500
TSLVVENGNGNGSGRGRKKRGRDGGGGGRGGGGGRGGGGEEDGLVGGAGAGGG | 25000
TSLVYPIHSSDTGDTLSSGLETPENSNFNSDSGIKEDFEAFRALLPLGKLIYD | 69500
TSPAPASSANGPAPPRRKRQATTAACRACRKRKSKCDGARPTCSVCRDRKTKC | 13100
TSPKKKGRAAAKGKKGADKENAEAKTEVEKKASEDEFKDLEPNGDSKTNGAAA | < 6570
TSQCSISLYHYLIMYHMTLLGVATSVLALVLVCNPAEFLISSSVRLGFIWFCI | 73700
TSRAPPSASPPTASHGAPTPPPPSPSSSPAPATPSSHPCPPTSSSSRPPSSPP | 41800
TSSPQKGAEKEEAAEAEPEKEKEAEAEAPASPQKRITPMKRGRGRPKRGGAAV | 27500
TSSPRRNSPPTRSTSSSPPSSPTSPYPSSSPPRPAPSPRPCARRGPKTPPSRP | 30300
TSSPSAHSSTNTNVVFVFGSEDKRVKEVGDALKVKLAVKGGGKGVKWSGKFTG | 25400
TSSPSAISSTSVNTLLVAGSEGTDAHVKTVGEQLKTRMGVKGGGKGTRWSGKM | 57300
TSSPSAQTAASTTVVLVIGSDDKKVKEVGDELKTKLNVKGGGKGPRWSGKFTG | 24700
TSSPSGQNASSTSVALVVGSDEKLVKAVGEGLKSKLGIKGGGKGPRWTGKWTG | 33700

Sequence | transcriptional activation domain activity
TSSSEESSNKGQRQLTVSIDSAAHHDNSTIPLDFMPRDALHGFDWSEEDDMSD | 39300
TSSSTAAPAVKRDEKPVKEKKPPAPQAPLEPGAVPEKRKRGRPRKVVSPPVPV | 49500
TSSTNHFYGTVVKTKDLLPIYLDVVLWMLKRDLLVTLHLRVRIVVPAELKERA | 59600
TSTAPHRGFGFVEFEHPEDAKAAQDNMHLSELYGKTIKVNLARPLKGAGPGGR | 57100
TSTGRFAFRQHRDHTTIHEGSWVSAGPGYDVGNRMWLLSRVVINAVVLELSSL | 42400
TSTKKTTTTKKATSTKSATATSSCTKYTVKKGDTCSSIASKVGGTTAAKIISK | 34000
TSTSGGSLFGGGSTAAPSTGSGGLFGNNSSTPATGAQPGTSLFGKPAGGATAG | 14200
TSTTPAGAPPADKPAGSLFGVKPAAAGSSSGGLFGQASNTSVAPSSIATTTAS | 28400
TSVLPIIAVHCAYKTPISDYILAFCYLLPYIYHSMGYLVRWLYLGLRVIFVAK | 70400
TSWKNEDQALVFHLRSRVSAAIMKLECHRDRRIDLLITFREAQRFLLELIGWV | 59400
TTAATEPTKTEAAPPAPATEPAPAAEPAAPAAEPAKEEAKPATEVKPEAPAAA | 24800
TTAETTAPAAETDAAAKVEEAKPAAATTEAKPAAAAPKPAADKKVKRSSTILQ | 10600
TTGCREGFDWTPLSSVRYGGICGGRLFSICHTTFEGLAIIGMPNILICNYNVT | 43300
TTGGLFGGGAANTGTTGGFGSGGGFGSSTTGGGGLFGNAGNQPKPAGLFGSST | 27700
TTKPKEASKPKEDPKPRSKSPVKKEETKVEKPKEDPPKAEAKSIPATTAAAAV | 59300
TTLTEKGSQVMEKNMDQLDSVHNLNDDDLQQLLEDLGNIDHSDEKLWKEITDQ | 93200
TTLVNTTAPYFPYSFSALEGSTFNGFSFDQTMFDLFLEVWEQTDPLMNYLFDF | 162000
TTLVTGTQLFFLLSFRDTMFAFSFLLFSPFVLFLWYGFFSSGALFISLICFLV | 54700
TTTGTTTTGTTATPSSSPETKPNKIPISMQGYAYSGGGRAIARVDVSLDNGRT | 37700
TTTLTGRPPSTFSGPETSNGPPTGSLPSKFVHDLMSNSPNVSSISMFPDWSMG | 21600
TTTTAADDADTDSKKEKEKEQAAVKVKVKEKEKEKRVLVHCCMGRSRSGAVVV | 20200

Sequence | transcriptional activation domain activity
TTWLAHSKKKNCDVCKHPYSFTKVYATDMPTRLPPVLLLRRIAQQSFFAMVFA | 44800
TVDSLLTFVPFFLLTLLFLLISLFLFILFFLIFFFLFIPFSSFLFIYFSLSFH | 32200
TVEFLLPFLSFSLLGCLFIFYFIFFLCFLFFFSQTFCFFISSNCWCFVSNLLP | 34700
TVGPVDNNYRDLEAYLETRYLRYCDPSKSLHLMATLMVRCAINILRFMARHPR | 54100
TVGVLILWCWLRLIQKALEKLHVKQIKTGHYGSPPLKNMLLPWLKQTFIFVLA | 69100
TVKEEEEEVKAKPAAAKVSRVRKAAAAKAQSEPEKDVAGPAPKTRAARTRAAS | 48100
TVKNLYLFIIITTVNVVVLLICVAHFALVFMSRAGLSLHARQLTALMHAKFTH | 49000
TVLLDVALNGNPKELIVFILEHVYSLENDLTVLQQSLLVLVICKVYNETYPKQ | 67400
TVMVFGSDEKRVKAVGDMLKANLNVKGGGKGTRWSGKRTGVWSDSREGAAVTG | 47800
TVPVLVLVIYDWPRDRSNAYQVVLAISIWCWGVYQLLYIFLCGLYNPNFSTFR | 59700
TVQLLKLFCAFSSLSSILIALLLQTPYYLATTWGTLLRRYIIFFSFPLINSIS | 54200
TVSDEAIEVCVAAQAREGEANKSVREVIAEALNVPKSDVEIAKGMKSREKTVA | 25700
TVWLILNDQTLGYALGSFLCENSLLLSQRINEFFDTVLVAWMQWVLRWLDSWP | 40400
TWHHSIYVPYSFVAAYDHPVCYLIHRFLPLYLTAITFRFHIMTYLLLVGLFSL | 45200
TWILNIPWPQTHMVAVLSLAGFLYFLILDIYEYMCYSYLVLLGTMWFVDIMFF | 73600
TWKVIGLVWRCPELTEYLNKVILTIIIIRSESHFDSSIAALNESCLTPYGTVD | 28800
TWLLFRQVVDVILINDFLAYCMFAFSCFRVPTDLSIPVHVMRWLVGITLIWFN | 74100
TWPINYRIRYILPLLVIAGYTKETLRLIQCIHQTRSSFFTPHFFRRMLRVLLR | 52500
TWPYSSLSELEDLMDRFKRMLTLLRMHLKHVAELEVMVTLWKYMGVLLEFLGS | 61800
TYAIWNCNKWILCILVVVASGVYISSAVILHDIFQSYEYPVLSLPTKMYCLPF | 18700
TYINYLITSNAGLTATIVHMLLWNYAEVSLGWSWITIANMKKLLRPETYKFWQ | 33300

Sequence | transcriptional activation domain activity
TYIPCDPLLTIVGGNVPFSSLGLRAFSLAMYSLLVIPGLNLVLPFLFFLLLHL | 92200
TYPVSMPFDGTLNLDLDMCFLDVTNTDINFSDIFDPNFQFGSYGFPLSLDYDI | 139000
TYSDVDGEILWPPPVMNVMMIERCGAVCCRVSVGWVLLRRWAQVKRKWETIVL | 41700
TYTPPVEKPDVEEQSRTRLIGLAALNGASSSEGAFSSSTEFPRQVRVIVPALL | 39800
VAAAAAETERAAEAERVAEAGRREEAEGTTDTGKTETGRREEADGTAGAAKAA | 24800
VAACLVNWDMKAAFVCVQSGNLKGVQALSALLGYVQIYYVQWLCAIVIAILYI | 60000
VAAFAVFCSIEARGSLYVFSVDAVKRVGRRIKHFWHGVWTVLRTAVLLCTCGR | 77400
VAALLATSLCMIYPLWSIFSIVQVIYMFANICLLVWVIPKGLHFACYYLLGVS | 37400
VAAVSRGEKERHRDRDREKKPSRSKPEKSSRRVVEKEEKTSSKGSASDKADKT | 39700
VACAVLIAVSIFATIYVVLTSLPVIFQQCPFQTPLSSIIWYLGHLLVIASLSL | 28400
VACEEEMRKLDEEDGRAGLGKGGEGEADREFKRHLRRMRASEVRIVRNVGDLL | 29000
VADVMLQRSTLVIGYCLVITIICCSVFLLYSMDFLSSCISFIWIGMVTLMICL | 41500
VAECLKAMVKWPITMSPTCFHKRLIPCIFFWSQNLLGILLLLHLTEQVPILVR | 72600
VAEDAVVAEDAVAAVVDVDVNHVAAAAVVDVEDVEGAEDVEGVVDAAAHRVAA | 16900
VAEDLFERVRLDWLILFDLRMWKKVRCDLRSLYISTVVTIPEFKRVLGLRFAG | 37300
VAGVKSDWDASSDEEEKPVPVAERVNGASSQKSAASKSPSKVTPMPSKTAHLV | 21300
VAIFTDVKNDHLMPNFNLHDQYCNSTNHDSHNHNNTVPDSFSQLMSHLSEIDC | 27700
VAKCFEKVKALIGTFDLDVGRVLDVTLDVFASLLVKHHKFFIKLLRCSYWWPV | 83300
VALACLLTVLPFLVVLGTFILSLTIYTFFLDRSIMVAFFHPFLHPFFFFSFFV | 25400
VALATWVIVIAVLLPTIFLIGFIESYCWFRRMMLGRSALRLGTICWCVMSLWF | 65100
